Consider seven molecules from patent publication US20220106398A1 (IGM BIOSCIENCES, published 2022).

For assay [1], the target named is T1, human GITR on HEK 293 cells (human, UniProt Q9Y5U5 26-241).
T1 construct: Bought cell line; also called GITR-expressing 293 cells; HEK 293 cells expressing human GITR (CrownBio, #C2011)
T1 sequence: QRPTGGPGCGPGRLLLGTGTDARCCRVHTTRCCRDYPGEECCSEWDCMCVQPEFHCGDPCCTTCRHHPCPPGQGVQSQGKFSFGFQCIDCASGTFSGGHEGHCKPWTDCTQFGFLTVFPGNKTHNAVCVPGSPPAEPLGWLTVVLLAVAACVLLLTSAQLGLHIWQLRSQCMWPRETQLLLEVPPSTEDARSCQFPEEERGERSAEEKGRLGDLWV
Kind of assay: flow cytometry on HEK 293 cells expressing human GITR. The protocol: Cells were washed twice, then stained for 30 minutes at 4° C. with 5 ug/mL mouse anti-human kappa-ALEXA FLUOR® 647 secondary antibody (Southern Biotech #9230-31) diluted in FACS buffer. Cells were washed twice, resuspended in FACS Stain Buffer, and signal was acquired by flow cytometry.

Assay [2] concerns the target T2, human His6-GITR (human, UniProt Q9Y5U5 26-162).
T2 construct: His6-tagged recombinant protein; also called hGITR-His; human GITR-His
T2 sequence: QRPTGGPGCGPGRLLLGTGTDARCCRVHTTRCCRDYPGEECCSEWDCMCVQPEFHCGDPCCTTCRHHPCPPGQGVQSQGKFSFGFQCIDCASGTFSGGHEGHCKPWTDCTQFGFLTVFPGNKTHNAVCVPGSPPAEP
The assay is described as follows: CARTERRA LSA, scFv periplasmic extract.

Assay [3] concerns the target T2, human His6-GITR. The assay is described as follows: ELISA, scFv periplasmic extract on coated His6-GITR.
For assay [4], the target named is T3, cynomolgus monkey His6-GITR (cynomolgus monkey).
T3 construct: His6-tagged recombinant protein; also called cGITR-His; cyno GITR-His
T3 chain: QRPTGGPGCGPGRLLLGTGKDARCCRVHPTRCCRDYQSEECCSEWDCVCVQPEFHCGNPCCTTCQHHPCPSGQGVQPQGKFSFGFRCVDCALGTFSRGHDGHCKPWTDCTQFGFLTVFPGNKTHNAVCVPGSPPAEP
The description is as above.

The next assay concerns the target T4, mouse His6-GITR (mouse, UniProt O35714 20-153).
T4 construct: His6-tagged recombinant protein; also called mGITR-His; mouse GITR-His
T4 sequence: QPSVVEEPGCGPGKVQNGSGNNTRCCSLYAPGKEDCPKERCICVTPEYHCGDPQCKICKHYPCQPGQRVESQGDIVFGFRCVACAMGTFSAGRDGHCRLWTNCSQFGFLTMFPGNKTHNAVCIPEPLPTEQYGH
The assay is described as above.

For assay [5], the target named is T5, GITR on GITR/NFkB-luciferase reporter Jurkat cells (UniProt Q9Y5U5 26-241, limits assumed).
T5 sequence (looked up): T1 sequence
Kind of assay: cell-based or functional assay.

Substitutions are numbered along the chain they refer to. Names and notes keep the numbering of the source.

B1: GITR-Mab-6 IgM/J* (antibody)
heavy: QVQLVQSGAEVKKPGASVKVSCKASGYAFTAYYLHWVRQAPGQGLEWMGWMNPNSGNTGYAQKFQGRVTMTRDTSTSTVYMELSSLRSEDTAVYYCAREGWGYYDGGFDPWGQGTLVTVSS
light: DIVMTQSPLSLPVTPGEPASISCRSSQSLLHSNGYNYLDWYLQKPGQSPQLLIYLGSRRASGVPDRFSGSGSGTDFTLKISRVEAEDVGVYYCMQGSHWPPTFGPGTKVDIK
chain: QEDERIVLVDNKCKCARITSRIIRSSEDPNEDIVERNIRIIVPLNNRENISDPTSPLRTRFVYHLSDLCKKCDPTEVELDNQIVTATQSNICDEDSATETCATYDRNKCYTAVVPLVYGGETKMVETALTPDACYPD
notes: IgM with variant J-chain J* (Y102A); not shown: IgM heavy chain constant region of proprietary vector; light chain constant region of proprietary vector (detected with anti-human kapp)
Take B1: in assay [1], the binding result is listed as “binds”.

B2: GITR-Mab-22 scFv (scFv, V domains shown)
VH: QVQLVQSGAEVKKPGASVKVSCKASGGRFSTYALSWVRQAPGQGLEWMGIINPTDGSTTYAQKFQGRVTMTRDTSTSTVYMELSSLRSEDTAVYYCARDVYSSSWYSDYWGQGTLVTVSS
VL: DIQMTQSPSSLSASVGDRVTITCRASQSISNWLAWYQQKPGKAPKLLIYAASTLQSGVPSRFSGSGSGTDFTLTISSLQPEDFATYYCQQSYSVPFTFGPGTKVDIK
notes: scFv in periplasmic extract, V5 tag
In general, Kd refers to a measure of binding affinity in units of concentration. With B2, in the assay with human His6-GITR [2], binding was characterised by a dissociation constant (Kd) of 2.3 nM. In addition, the hGITR-His/BKG with human His6-GITR [3] is 25.7 fold over background. In addition, the cGITR-His/BKG in assay [4] was found to be 23.3 fold over background. This molecule returned a mGITR-His/BKG with mouse His6-GITR of 1.2 fold over background.

B3: GITR-Mab-24 scFv (scFv, V domains shown)
VH: QVQLVQSGAEVKKPGASVKVSCKASGGTFNNYAINWVRQAPGQGLEWMGTINPRDGDTTYAQKFQGRVTMTRDTSTSTVYMELSSLRSEDTAVYYCARVGYYGSGSYYSYYGMDVWGQGTTVTVSS
VL: B2 VL with S28N, S30T, T53S, S91A, V94F, F96W, P100Q, D105E
notes: as for B2
In the case of B3, the Kd with human His6-GITR [2] came to 38.9 nM. In the assay with human His6-GITR [3], the hGITR-His/BKG was determined as 19 fold over background. Moreover, the cGITR-His/BKG in assay [4] was determined as 5.7 fold over background. Moreover, the mGITR-His/BKG in the assay with mouse His6-GITR worked out at 1.7 fold over background.

B4: GITR-Mab-20 scFv (scFv, V domains shown)
VH: QVQLVQSGAEVKKPGASVKVSCKASGGTFSNYAISWVRQAPGQGLEWMGVINPRGGSTTYAQKFQGRVTMTRDTSTSTVYMELSSLRSEDTAVYYCARDYSIPYYGMDVWGQGTTVTVSS
VL: DIQMTQSPSSLSASVGDRVTITCRASQSISTYLNWYQQKPGKAPKLLIYDASNLETGVPSRFSGSGSGTDFTLTISSLQPEDFATYYCQQSYSTPLTFGGGTKVEIK
notes: as for B2
B4: the dissociation constant Kd with human His6-GITR [2] stood at 7.8 nM. In the assay with human His6-GITR [3], this molecule returned a hGITR-His/BKG of 24.7 fold over background. The cGITR-His/BKG in assay [4] amounted to 15.3 fold over background. Besides, the mGITR-His/BKG with mouse His6-GITR stood at 1.1 fold over background.

B5: GITR-Mab-14 IgM/J* (antibody, not shown: a dimerising Fc or GST; large carriers)
heavy: EVQLLESGGGLVKPGGSLRLSCAASGFRFSVYWMSWVRQAPGKGLEWVSGISGSGGTTYYADSVKGRFTISRDDSKNTLYLQMNSLKTEDTAVYYCARVRRDGYNYNFDYWGQGTLVTVSS
light: DIQMTQSPSSLSASVGDRVTITCQASQDISNYLNWYQQKPGKAPKLLIFDASSLEAGVPSRFSGSGSGTDFTLTISSLQPEDFATYYCQQANSFPPTFGQGTEVEIK
chain: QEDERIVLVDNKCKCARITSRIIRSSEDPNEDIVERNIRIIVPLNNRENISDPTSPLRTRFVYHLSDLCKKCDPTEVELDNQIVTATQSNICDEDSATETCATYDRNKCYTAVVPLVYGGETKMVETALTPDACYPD
For orientation: EC50 means the concentration giving half of the maximal effect. With B5, in assay [5], the concentration for a half-maximal effect (EC50) turned out to be 0.34 µg/mL and the “Max Fold activation” value amounted to 1.6 fold.

B6: GITR-Mab-21 scFv (scFv, V domains shown)
VH: EVQLLESGGGLVQPGGSLRLSCAASGFTFSNHYMSWVRQAPGKGLEWVAVIALDGSYRYYADSVKGRFTISRDNSKNTLYLQMNSLRAEDTAVYYCARVGPGGMDVRGQGTTVTVSS
VL: DIQMTQSPSSLSASVGDRVTITCQASQDISNYLNWYQQKPGKAPKLLIYAASSLQSGVPSRFSGSGSGTDFTLTISSLQPEDFATYYCQQSYNSPRVYTFGQGTKVEIK
notes: as for B2
The molecule B6 registered a Kd with human His6-GITR [2] of 2.9 nM. For the same molecule, the hGITR-His/BKG with human His6-GITR [3] amounted to 13.5 fold over background. Further, the cGITR-His/BKG in assay [4] turned out to be 21.2 fold over background. In addition, in the assay with mouse His6-GITR, the mGITR-His/BKG amounted to 1.2 fold over background.

B7: GITR-Mab-3 IgM/J* (antibody, not shown: a dimerising Fc or GST; large carriers)
heavy: QVQLVQSGAEVKKPGASVKVSCKASGYTFTSYDINWVRQAPGQGLEWMGWISGYNGNTNYAQKFQGRVTMTRDTSTSTVYMELSSLRSEDTAVYYCARSHEYYYYYGMDVWGQGTLVTVSS
light: EIVMTQSPATLSVSPGERATLSCRASQSVSSSYLAWYQQKPGQAPRLLIYGASTRATGIPARFSGSGSGTEFTLTISSLQSEDFAVYYCQQYYTTPFTFGPGTKVDIK
chain: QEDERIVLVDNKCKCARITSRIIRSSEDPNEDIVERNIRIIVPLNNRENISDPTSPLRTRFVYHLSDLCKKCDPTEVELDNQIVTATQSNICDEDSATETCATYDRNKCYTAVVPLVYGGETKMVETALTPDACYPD
With B7, in assay [5], the concentration giving a half-maximal response (EC50) came to 5 µg/mL and the “Max Fold activation” value was 1.3 fold.
